This series concerns guinea pig (豚鼠). The experiment in a line: Allergy (sensitisation) test (过敏性试验). It is filed as in vivo. As to conditions: 0.5 ml x 3 every other day; challenge i.v. 1 ml on day 14 and day 21; observed 30 minutes.

Consider one molecule from patent publication CN103211774A, “一种注射用甲磺酸加贝酯组合物及其制备方法” (CHENGDU EASTON PHARMACEUTICAL Co Ltd, priority 2013, dated 2013).

B1: 阳性对照组: 5% ovalbumin positive control group (protein, UniProt P01012 2-386, looked up)
Ovalbumin: GSIGAASMEFCFDVFKELKVHHANENIFYCPIAIMSALAMVYLGAKDSTRTQINKVVRFDKLPGFGDSIEAQCGTSVNVHSSLRDILNQITKPNDVYSFSLASRLYAEERYPILPEYLQCVKELYRGGLEPINFQTAADQARELINSWVESQTNGIIRNVLQPSSVDSQTAMVLVNAIVFKGLWEKAFKDEDTQAMPFRVTEQESKPVQMMYQIGLFRVASMASEKMKILELPFASGTMSMLVLLPDEVSGLEQLESIINFEKLTEWTSSNVMEERKIKVYLPRMKMEEKYNLTSVLMAMGITDVFSSSANLSGISSAESLKISQAVHAAHAEINEAGREVVGSAEAGVDAASVSEEFRADHPFLFCIKHIATNAVLFFGRCVSP
With B1, the allergic reaction symptoms result is reported as “竖毛、发抖、干呕、喷嚏、咳嗽、紫癜、呼吸困难、抽搐、休克、死亡”.
